Changes are numbered by the printed parent chain. Each block holds one binder with its values, some of them ahead of it.
How the values were obtained:
[1] = target: T1, ヒトFcγRIIa (R) (human, UniProt P12318 34-217); experiment: SPR, KD; reference IL6R-B3/IL6R-L
T1 construct: extracellular domain; N-glycans trimmed with Endo F1/F2/F3 for the crystals; also called FcγRIIa R型
T1 sequence (looked up): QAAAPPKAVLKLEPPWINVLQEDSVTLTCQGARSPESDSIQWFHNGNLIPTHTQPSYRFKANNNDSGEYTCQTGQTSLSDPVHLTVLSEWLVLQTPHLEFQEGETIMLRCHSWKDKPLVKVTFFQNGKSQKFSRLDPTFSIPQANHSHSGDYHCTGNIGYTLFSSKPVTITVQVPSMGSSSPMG

[2] = target: T2, ヒトFcγRIIb (human, UniProt P31994 43-217); experiment: SPR, KD; reference IL6R-B3/IL6R-L
T2 construct: extracellular domain; for the crystals it was expressed with kifunensine and its N-glycans trimmed with Endo F1; also called FcγRIIb細胞外領域
T2 sequence (looked up): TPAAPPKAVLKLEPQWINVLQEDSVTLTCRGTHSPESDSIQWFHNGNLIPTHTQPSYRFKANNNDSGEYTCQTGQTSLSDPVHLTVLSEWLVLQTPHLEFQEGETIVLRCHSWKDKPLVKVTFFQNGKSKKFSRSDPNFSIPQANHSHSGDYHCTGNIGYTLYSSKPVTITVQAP

[3] = target: ヒトFcγRIa (human, UniProt P12314 16-292); experiment: SPR, KD
[4] = target: T1, ヒトFcγRIIa (R); experiment: SPR, KD
[5] = target: T3, ヒトFcγRIIa (H) (human, UniProt P12318 34-217); experiment: SPR, KD
T3 construct: extracellular domain; also called FcγRIIa H型
T3 sequence (looked up): T1 sequence (looked up) with R134H

[6] = target: T4, マウスFcRn (mouse, UniProt Q61559 22-297, limits assumed); experiment: SPR, Biacore T100, pH 7.0, 25C
T4 construct: also called mouse FcRn
T4 sequence (looked up): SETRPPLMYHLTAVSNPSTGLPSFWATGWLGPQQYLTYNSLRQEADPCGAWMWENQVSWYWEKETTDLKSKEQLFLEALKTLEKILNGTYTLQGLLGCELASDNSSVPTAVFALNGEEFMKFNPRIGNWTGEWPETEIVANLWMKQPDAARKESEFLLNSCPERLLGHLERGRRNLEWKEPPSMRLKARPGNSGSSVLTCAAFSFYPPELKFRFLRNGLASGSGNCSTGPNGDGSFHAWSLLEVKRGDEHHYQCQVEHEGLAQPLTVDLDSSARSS

[7] = target: T4, マウスFcRn; experiment: SPR, Biacore T100; antibody captured on protein L, FcRn as analyte, pH 7.0, 25C; reference Fv4-IgG1

Chain of ヒトFcγRIa (P12314 16-292): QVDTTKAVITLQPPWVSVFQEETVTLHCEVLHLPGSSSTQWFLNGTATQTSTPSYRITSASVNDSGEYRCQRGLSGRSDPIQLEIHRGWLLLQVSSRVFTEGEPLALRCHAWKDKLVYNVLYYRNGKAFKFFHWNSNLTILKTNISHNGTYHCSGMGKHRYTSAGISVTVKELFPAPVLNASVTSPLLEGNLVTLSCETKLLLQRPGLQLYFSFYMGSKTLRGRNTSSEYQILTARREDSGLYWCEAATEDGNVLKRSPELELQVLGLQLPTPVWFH

fold enhancement of binding against IL6R-B3/IL6R-L [1]: ~1.9 fold
fold enhancement of binding against IL6R-B3/IL6R-L [2]: ~150 fold
fold improvement of binding activity against IL6R-B3 [2]: 148 fold
B1: IL6R-BP230/IL6R-L (antibody)
chain 1: QVQLQESGPGLVKPSETLSLTCAVSGHSISHDHAWSWVRQPPGEGLEWIGFISYSGITNYNPSLQGRVTISRDNSKNTLYLQMNSLRAEDTAVYYCARSLARTTAMDYWGEGTLVTVSSASTKGPSVFPLAPSSKSTSGGTAALGCLVKDYFPEPVTVSWNSGALTSGVHTFPAVLQSSGLYSLSSVVTVPSSSLGTQTYICNVNHKPSNTKVDKKVEPKSCDKTHTCPPCPAPDLLGDDSVFLFPPKPKDTLMISRTPEVTCVVVDVSDEDGEVKFNWYVDGVEVHNAKTKPREEQDNSTYRVVSVLTVLHQDWLNGKEYKCKVSNKALPRPIEKTISKAKGQPREPQVYTLPPSRDELTKNQVSLTCLVKGFYPSDIAVEWESNGQPENNYKTTPPVLDSDGSFFLYSKLTVDKSRWQQGNVFSCSVMHEALHNHYTQESLSLSP
chain 2: not shown

binding result [3]: binds
binding result [4]: binds
binding result [5]: binds
B2: IL6R-B3/IL6R-L (antibody, human IgG1)
heavy: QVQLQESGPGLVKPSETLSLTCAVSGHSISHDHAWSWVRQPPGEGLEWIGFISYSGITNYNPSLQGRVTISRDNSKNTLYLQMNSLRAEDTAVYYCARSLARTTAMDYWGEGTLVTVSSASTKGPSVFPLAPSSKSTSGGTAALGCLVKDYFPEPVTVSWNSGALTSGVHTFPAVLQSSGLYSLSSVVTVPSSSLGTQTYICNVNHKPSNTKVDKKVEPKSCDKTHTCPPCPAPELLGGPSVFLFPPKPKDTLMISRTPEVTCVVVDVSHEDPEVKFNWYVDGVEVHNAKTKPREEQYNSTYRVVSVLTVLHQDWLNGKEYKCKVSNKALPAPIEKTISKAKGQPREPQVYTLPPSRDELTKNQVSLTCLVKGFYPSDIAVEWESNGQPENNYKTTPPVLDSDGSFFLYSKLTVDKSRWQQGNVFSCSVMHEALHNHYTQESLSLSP
light: DIQMTQSPSSLSASVGDRVTITCRASQDISSYLNWYQQKPGKAPKLLIYYTSRLHSGVPSRFSGSGSGTDFTFTISSLQPEDIATYYCQQGNTLPYTFGQGTKVEIK

Kd [6]: 150 nM
fold improvement of affinity against IgG1 [7]: ~24.7 fold
B3: Fv4-hF1 (antibody, human IgG1, kappa)
heavy: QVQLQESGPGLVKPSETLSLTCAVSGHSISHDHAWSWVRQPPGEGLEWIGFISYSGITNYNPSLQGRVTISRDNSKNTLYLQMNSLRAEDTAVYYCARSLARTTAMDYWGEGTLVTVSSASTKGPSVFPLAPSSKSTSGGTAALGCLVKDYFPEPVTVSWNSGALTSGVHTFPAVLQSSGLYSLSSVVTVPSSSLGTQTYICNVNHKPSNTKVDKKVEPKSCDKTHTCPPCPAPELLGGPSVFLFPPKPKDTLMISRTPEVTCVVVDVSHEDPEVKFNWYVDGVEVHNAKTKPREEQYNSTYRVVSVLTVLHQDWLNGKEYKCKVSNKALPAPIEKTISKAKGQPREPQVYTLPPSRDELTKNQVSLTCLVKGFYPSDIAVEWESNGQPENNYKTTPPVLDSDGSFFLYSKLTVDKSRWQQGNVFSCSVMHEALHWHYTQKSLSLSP
light: DIQMTQSPSSLSASVGDSVTITCQASTDISSHLNWYQQKPGKAPELLIYYGSHLLSGVPSRFSGSGSGTDFTFTISSLEAEDAATYYCGQGNRLPYTFGQGTKVEIERTVAAPSVFIFPPSDEQLKSGTASVVCLLNNFYPREAKVQWKVDNALQSGNSQESVTEQDSKDSTYSLSSTLTLSKADYEKHKVYACEVTHQGLSSPVTKSFNRGEC

From patent JP2014043405A (dated 2014)
